Laboratory results taken from paper PMC2613574.

Assays:
[1] = biological target: FNfn10 ND7N fragment displayed on the yeast surface (Aga2p fusion, FLAG tag) (human); assay: flow cytometry on cells
[2] = biological target: FNfn10 wild-type N fragment displayed on the yeast surface (Aga2p fusion, FLAG tag) (human); assay: flow cytometry on cells

Row | Kd [1] | log(B/E ratio) [2] | Substance
1 | 25.3 nM |  | ubiquitin fusion of the FNfn10 C fragment with the V5 tag (domain or fragment)
2 |  | 1.3 | FNfn10 C fragment, wild type, co-secreted in yeast (V5 tag) (domain or fragment)
